Source: patent US20240325499A1, “FGF21 COMPOUND / GLP-1R AGONIST COMBINATIONS WITH OPTIMIZED ACTIVITY RATIO” (SANOFI, priority 2018, published 2024)

Key:
human FGFR1c and KLB [1] = target: T1, human FGFR1c and KLB (Homo sapiens, UniProt P11362+Q86Z14); test: In-Cell Western ERK1/2 phosphorylation (pERK ICW) in CHO cells; format: cell-based; details: CHO cells overexpressing human FGFR1c and KLB; 5 min stimulus; n = 61
T1 construct: host or cells: CHO Flp-In cells
Description: (§1) The cellular in vitro efficacy of mature human FGF21 (SEQ ID NO: 2) or FGF21 variants was measured using a specific and highly sensitive In-Cell Western (ICW) assay. The ICW assay is an immunocytochemical assay usually performed in microplate format. CHO Flp-In cells (Invitrogen, Darmstadt, Germany) stably expressing the human FGFR1c (=FGF receptor 1c isoform) together with human beta-Klotho (KLB) were used for an FGF21 receptor autophosphorylation assay using In-Cell Western (Aguilar H. N. et al. (2010) PLoS ONE 5(4): e9965). In order to determine the receptor autophosphorylation level or downstream activation of the MAP kinase ERK1/2, 2×10^4 cells/well were seeded into 96-well plates and grown for 48 h. Cells were serum starved with serum-free medium Ham's F-12 Nutrient Mix with GlutaMAX (Gibco, Darmstadt, Germany) for 3-4 h. The cells were subsequently treated with increasing concentrations of either mature human FGF21 (SEQ ID NO: 2) for 5 min at 37° C. After incubation, the medium was discarded, and the cells were fixed in 3.7% freshly prepared para-formaldehyde for 20 min. […] Subsequently, cells were washed again with PBS plus 0.1% Tween20, and infrared dye signals were quantified with an Odyssey imager (LICOR, Bad Homburg, Germany). Results were normalized by quantification of DNA with TO-PRO3 dye (Invitrogen, Karlsruhe, Germany). […]

human FGFR1c and KLB [2] = target: T1, human FGFR1c and KLB; test: In-Cell Western FGF21 receptor autophosphorylation (pFGFR ICW) in CHO cells; format: cell-based; details: CHO cells overexpressing human FGFR1c and KLB; 5 min stimulus; n = 59
Description: as §1

EC50 (human FGFR1c and KLB [1]): 0.18 ± 0.02 nM
EC50 (human FGFR1c and KLB [2]): 4.8 ± 0.23 nM
B1: mature human wild-type FGF21, FGF21(His29-Ser209) (protein, listed as Homo sapiens)
chain: HPIPDSSPLLQFGGQVRQRYLYTDDAQQTEAHLEIREDGTVGGAADQSPESLLQLKALKPGVIQILGVKTSRFLCQRPDGALYGSLHFDPEACSFRELLLEDGYNVYQSEAHGLPLHLPGNKSPHRDPAPRGPARFLPLPGLPPAPPEPPGILAPQPPDVGSSDPLSMVGPSQGRSPSYAS
